In test [1] the target is recombinant purified integrin αMβ2 (UniProt P11215). Put plainly: ELISA. For orientation: In an ELISA, binding on a coated surface is turned into a signal by an enzyme label.
The target in test [2] is recombinant purified αM integrin subunit (UniProt P11215). The test is described as follows: ELISA.
In test [3] the target is recombinant purified β2 integrin subunit (UniProt P05107). The test is described as follows: ELISA.
Test [4] concerns the target integrin αMβ2 on human PMNs (human (endogenous in PMNs)) (UniProt P11215).
The target in test [5] is wild-type αMβ2 on transfected K562 cells (UniProt P11215). Put plainly: flow cytometry on cells. (In general: Flow cytometry measures light scatter and fluorescence of single cells or particles in a stream.)
The next test has as its target αM(1119Δ)β2 (UniProt P11215). The test is described as follows: flow cytometry on cells.
Another test deals with αM/αLβ2 chimera (UniProt P05107). The test is described as follows: flow cytometry on cells.
Another test has as its target αMβ2(728Δ) (UniProt P11215). Put plainly: flow cytometry on cells.

Ang(1–4), angiostatin composed of four kringle domains of Plg, sequence (P00747 20-810): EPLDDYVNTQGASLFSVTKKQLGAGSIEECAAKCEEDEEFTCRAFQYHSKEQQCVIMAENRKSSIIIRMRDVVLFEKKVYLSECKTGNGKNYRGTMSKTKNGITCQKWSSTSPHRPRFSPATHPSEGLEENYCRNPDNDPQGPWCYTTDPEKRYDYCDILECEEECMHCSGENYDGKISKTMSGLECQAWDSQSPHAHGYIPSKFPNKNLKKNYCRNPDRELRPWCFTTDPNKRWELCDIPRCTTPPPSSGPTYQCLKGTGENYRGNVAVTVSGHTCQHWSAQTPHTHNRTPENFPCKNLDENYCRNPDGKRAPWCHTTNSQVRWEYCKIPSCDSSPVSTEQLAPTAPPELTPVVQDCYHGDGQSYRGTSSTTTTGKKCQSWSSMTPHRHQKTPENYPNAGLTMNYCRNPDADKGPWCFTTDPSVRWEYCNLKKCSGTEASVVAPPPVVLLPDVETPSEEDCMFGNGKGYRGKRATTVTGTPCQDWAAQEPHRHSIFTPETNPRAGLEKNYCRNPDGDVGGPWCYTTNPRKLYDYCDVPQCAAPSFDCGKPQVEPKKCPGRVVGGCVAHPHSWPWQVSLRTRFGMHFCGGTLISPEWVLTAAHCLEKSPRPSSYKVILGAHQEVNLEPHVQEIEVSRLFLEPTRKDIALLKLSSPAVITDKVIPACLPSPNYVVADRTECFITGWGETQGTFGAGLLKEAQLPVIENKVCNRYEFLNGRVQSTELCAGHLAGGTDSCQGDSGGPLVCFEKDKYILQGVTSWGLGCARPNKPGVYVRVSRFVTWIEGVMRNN

Broadly, the Kd is the constant that tells how readily two partners part at equilibrium. Turning to “Ang(1–4), angiostatin composed of four kringle domains of Plg (from UniProt P00747 20-810) (domain or fragment)”, the Kd in test [1] was 500 nM; in test [2] it was 400 nM; in test [3], greater than 100000 nM.
In turn, plasminogen (Glutamic Plg) (ligand) registered a PMN early/late apoptosis (% annexin V+ cells), 16 h, Plg 1 μM with NIF (50 nM) in test [4] of 90%. The MFI of bound ligand in test [5] was determined as 130 MFI; with αM(1119Δ)β2 it was 145 MFI; with αM/αLβ2 chimera, 135 MFI; with αMβ2(728Δ), 152 MFI. The Kd in test [2] was 100 nM; in test [3], 500 nM.
For the substance “human fibrinogen (from UniProt P02671-2 20-644; P02675 31-491; P02679-2 27-437) (complex)”, the MFI of bound ligand with αM/αLβ2 chimera worked out at 129 MFI.

(Values after publication PMC2978023.)
